Results reported in publication PMC9352680, “A comprehensive thermodynamic model for RNA binding by the Saccharomyces cerevisiae Pumilio protein PUF4”.

T1: PUF4 RNA-binding domain (Saccharomyces cerevisiae, UniProt P25339 537-888)
T1 sequence: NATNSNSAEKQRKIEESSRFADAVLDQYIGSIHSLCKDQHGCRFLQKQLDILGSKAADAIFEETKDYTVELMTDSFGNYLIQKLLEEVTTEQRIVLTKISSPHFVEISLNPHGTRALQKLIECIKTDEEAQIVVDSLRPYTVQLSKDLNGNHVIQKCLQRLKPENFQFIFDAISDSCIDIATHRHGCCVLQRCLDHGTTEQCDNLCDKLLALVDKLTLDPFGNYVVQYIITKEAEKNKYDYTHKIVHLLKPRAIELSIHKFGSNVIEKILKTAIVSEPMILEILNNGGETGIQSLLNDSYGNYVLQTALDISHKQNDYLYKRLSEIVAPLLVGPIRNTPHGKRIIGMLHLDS


Target: T1, PUF4 RNA-binding domain
Test: Mg; RNA-MaP; 20 mM Na-HEPES pH 7.4, 30 mM KOAc, 0.75 mM MgCl2, 0.1% Tween-20, 5% glycerol, 0.1 mg/mL BSA, 2 mM DTT; 25 C; 0.0125-409.6 nM protein
Conditions: tags: N-His6-TEV cleaved; C-SNAP kept, Cy3B-labelled; label: tethered on chip by stalled RNA polymerase

Binder	Kd [nM]
UCUCUUUGUACCAUACUCUCUU (ssRNA) [Ic_S1_P5E.1_K5.1_C5.1_H5.1_A5.1_[T5C]_[T6C]_F5.1_[T9A]_[A10C]_T5.1]	1.59
UCUCUUUGUAUGCAGUUCUCUU (ssRNA) [Ic_S1_P5E.1_K5.1_C5.1_H5.1_A5.1_[T6G]_[A7C]_F5.1_[T8A]_[T9G]_[A10T]_T5.1]	1990
UCUCUUUGUACGUCAUUCUCUU (ssRNA) [Ic_S1_P5E.1_K5.1_C5.1_H5.1_A5.1_[T5C]_[T6G]_[A7T]_F5.1_[T8C]_[T9A]_[A10T]_T5.1]	96.5
UCUCUUUGUAGUUAUUUCUCUU (ssRNA) [Ic_S1_P5E.1_K5.1_C5.1_H5.1_A5.1_[T5G]_[A7T]_F5.1_[T8A]_[A10T]_T5.1]	705
UCUCUUUGUACACCAUUCUCUU (ssRNA) [Ic_S1_P5E.1_K5.1_C5.1_H5.1_A5.1_[T5C]_[T6A]_[A7C]_F5.1_[T8C]_[T9A]_[A10T]_T5.1]	16.1
UCUCUUUGUAUACUACUCUCUU (ssRNA) [Ic_S1_P5E.1_K5.1_C5.1_H5.1_A5.1_[T6A]_[A7C]_F5.1_[T9A]_[A10C]_T5.1]	2.89
UCUCUUGGCAUAUAUCUCUU (ssRNA) [Ib_S1_P3E.1_K3.1_C3.1_H3.1_[T1G]_[T3C]_A3.1_F3.1_T3.1]	> 2300
UCUCUUUGUAUACGGUUCUCUU (ssRNA) [Ic_S1_P5E.1_K5.1_C5.1_H5.1_A5.1_[T6A]_[A7C]_F5.1_[T8G]_[T9G]_[A10T]_T5.1]	90.4
UCUCUUUGUAACAGCCUCUCUU (ssRNA) [Ic_S1_P5E.1_K5.1_C5.1_H5.1_A5.1_[T5A]_[T6C]_F5.1_[T8G]_[T9C]_[A10C]_T5.1]	1140
UCUCUUUGUACACCCCUCUCUU (ssRNA) [Ic_S1_P5E.1_K5.1_C5.1_H5.1_A5.1_[T5C]_[T6A]_[A7C]_F5.1_[T8C]_[T9C]_[A10C]_T5.1]	113
UCUCUUUGUAAGUUGUUCUCUU (ssRNA) [Ic_S1_P5E.1_K5.1_C5.1_H5.1_A5.1_[T5A]_[T6G]_[A7T]_F5.1_[T9G]_[A10T]_T5.1]	495
UCUCUUUGUACUUCAUUCUCUU (ssRNA) [Ic_S1_P5E.1_K5.1_C5.1_H5.1_A5.1_[T5C]_[A7T]_F5.1_[T8C]_[T9A]_[A10T]_T5.1]	75.9
UCUCUUUGUAUGGUAAUCUCUU (ssRNA) [Ic_S1_P5E.1_K5.1_C5.1_H5.1_A5.1_[T6G]_[A7G]_F5.1_[T9A]_T5.1]	32.1
UCUCUUUGUAUCUAUCUCUCUU (ssRNA) [Ic_S1_P5E.1_K5.1_C5.1_H5.1_A5.1_[T6C]_[A7T]_F5.1_[T8A]_[A10C]_T5.1]	41.5
UCUCUUUGUAAUUGCCUCUCUU (ssRNA) [Ic_S1_P5E.1_K5.1_C5.1_H5.1_A5.1_[T5A]_[A7T]_F5.1_[T8G]_[T9C]_[A10C]_T5.1]	645
UCUCUUUGUAAUUUUCUCUCUU (ssRNA) [Ic_S1_P5E.1_K5.1_C5.1_H5.1_A5.1_[T5A]_[A7T]_F5.1_[A10C]_T5.1]	29.8
UCUCUUUGUACAAUUCUCUCUU (ssRNA) [Ic_S1_P5E.1_K5.1_C5.1_H5.1_A5.1_[T5C]_[T6A]_F5.1_[A10C]_T5.1]	12.1
UCUCUUUGUAUAAAUCUCUU (ssRNA) [Ia_S1_P3E.1_K3.1_C3.1_H3.1_A3.1_F3.1_[T7A]_T3.1]	50.4
UCUCUUUGUAUAUCAUCUCUU (ssRNA) [Ic_S1_P4E.1_K4.1_C4.1_H4.1_A4.1_F4.1_[T8C]_T4.1]	8.57
UCUCUUAGCAUAUAUCUCUU (ssRNA) [Ib_S1_P3E.1_K3.1_C3.1_H3.1_[T1A]_[T3C]_A3.1_F3.1_T3.1]	> 2300
UCUCUUUGUAAGCUGCUCUCUU (ssRNA) [Ic_S1_P5E.1_K5.1_C5.1_H5.1_A5.1_[T5A]_[T6G]_[A7C]_F5.1_[T9G]_[A10C]_T5.1]	604
UCUCUUUGUAUUUCGUUCUCUU (ssRNA) [Ic_S1_P5E.1_K5.1_C5.1_H5.1_A5.1_[A7T]_F5.1_[T8C]_[T9G]_[A10T]_T5.1]	370
UCUCUUUGUAGUAUAUUCUCUU (ssRNA) [Ic_S1_P5E.1_K5.1_C5.1_H5.1_A5.1_[T5G]_F5.1_[T9A]_[A10T]_T5.1]	8.21
UCUCUUUGUAAAACCGUCUCUU (ssRNA) [Ic_S1_P5E.1_K5.1_C5.1_H5.1_A5.1_[T5A]_[T6A]_F5.1_[T8C]_[T9C]_[A10G]_T5.1]	1190
UCUCUUUGUAAACUAAUCUCUU (ssRNA) [Ic_S1_P5E.1_K5.1_C5.1_H5.1_A5.1_[T5A]_[T6A]_[A7C]_F5.1_[T9A]_T5.1]	3.01

Binder	Kd [nM]
UCUCUUUGUACAGCAUUCUCUU (ssRNA) [Ic_S1_P5E.1_K5.1_C5.1_H5.1_A5.1_[T5C]_[T6A]_[A7G]_F5.1_[T8C]_[T9A]_[A10T]_T5.1]	23.4
UCUCUUUGUAACCCAUUCUCUU (ssRNA) [Ic_S1_P5E.1_K5.1_C5.1_H5.1_A5.1_[T5A]_[T6C]_[A7C]_F5.1_[T8C]_[T9A]_[A10T]_T5.1]	711
UCUCUUUGUACCAGCUUCUCUU (ssRNA) [Ic_S1_P5E.1_K5.1_C5.1_H5.1_A5.1_[T5C]_[T6C]_F5.1_[T8G]_[T9C]_[A10T]_T5.1]	747
UCUCUUUGUAACGGUCUCUCUU (ssRNA) [Ic_S1_P5E.1_K5.1_C5.1_H5.1_A5.1_[T5A]_[T6C]_[A7G]_F5.1_[T8G]_[A10C]_T5.1]	> 2300
UCUCUUUGUAUUUGCGUCUCUU (ssRNA) [Ic_S1_P5E.1_K5.1_C5.1_H5.1_A5.1_[A7T]_F5.1_[T8G]_[T9C]_[A10G]_T5.1]	659
UCUCUUGGUCUAUAUCUCUU (ssRNA) [Ib_S1_P3E.1_K3.1_C3.1_H3.1_[T1G]_[A4C]_A3.1_F3.1_T3.1]	> 2300
UCUCUUUGUAUUUAAUUCUCUU (ssRNA) [Ic_S1_P5E.1_K5.1_C5.1_H5.1_A5.1_[A7T]_F5.1_[T8A]_[T9A]_[A10T]_T5.1]	46.2
UCUCUUUGUACGGUCGUCUCUU (ssRNA) [Ic_S1_P5E.1_K5.1_C5.1_H5.1_A5.1_[T5C]_[T6G]_[A7G]_F5.1_[T9C]_[A10G]_T5.1]	> 2300
UCUCUUUGUACCAUCUUCUCUU (ssRNA) [Ic_S1_P5E.1_K5.1_C5.1_H5.1_A5.1_[T5C]_[T6C]_F5.1_[T9C]_[A10T]_T5.1]	28
UCUCUUUGUAAUCUGAUCUCUU (ssRNA) [Ic_S1_P5E.1_K5.1_C5.1_H5.1_A5.1_[T5A]_[A7C]_F5.1_[T9G]_T5.1]	83.4
UCUCUUUGUACCAGUGUCUCUU (ssRNA) [Ic_S1_P5E.1_K5.1_C5.1_H5.1_A5.1_[T5C]_[T6C]_F5.1_[T8G]_[A10G]_T5.1]	470
UCUCUUUGUACCUUGGUCUCUU (ssRNA) [Ic_S1_P5E.1_K5.1_C5.1_H5.1_A5.1_[T5C]_[T6C]_[A7T]_F5.1_[T9G]_[A10G]_T5.1]	103
UCUCUUUGUAAACUGUUCUCUU (ssRNA) [Ic_S1_P5E.1_K5.1_C5.1_H5.1_A5.1_[T5A]_[T6A]_[A7C]_F5.1_[T9G]_[A10T]_T5.1]	12.6
UCUCUUUGUACCAAACUCUCUU (ssRNA) [Ic_S1_P5E.1_K5.1_C5.1_H5.1_A5.1_[T5C]_[T6C]_F5.1_[T8A]_[T9A]_[A10C]_T5.1]	68.1
UCUCUUUGUAUGUACUUCUCUU (ssRNA) [Ic_S1_P5E.1_K5.1_C5.1_H5.1_A5.1_[T6G]_[A7T]_F5.1_[T8A]_[T9C]_[A10T]_T5.1]	64.7
UCUCUUUGUAACGACUUCUCUU (ssRNA) [Ic_S1_P5E.1_K5.1_C5.1_H5.1_A5.1_[T5A]_[T6C]_[A7G]_F5.1_[T8A]_[T9C]_[A10T]_T5.1]	> 2300
UCUCUUCGUGUAUAUCUCUU (ssRNA) [Ib_S1_P3E.1_K3.1_C3.1_H3.1_[T1C]_[A4G]_A3.1_F3.1_T3.1]	26.7
UCUCUUUGUACUUCGUUCUCUU (ssRNA) [Ic_S1_P5E.1_K5.1_C5.1_H5.1_A5.1_[T5C]_[A7T]_F5.1_[T8C]_[T9G]_[A10T]_T5.1]	352
UCUCUUUGUAAAACGGUCUCUU (ssRNA) [Ic_S1_P5E.1_K5.1_C5.1_H5.1_A5.1_[T5A]_[T6A]_F5.1_[T8C]_[T9G]_[A10G]_T5.1]	625
UCUCUUUGUAAACUAUUCUCUU (ssRNA) [Ic_S1_P5E.1_K5.1_C5.1_H5.1_A5.1_[T5A]_[T6A]_[A7C]_F5.1_[T9A]_[A10T]_T5.1]	2.36
UCUCUUUGUAAACUUUUCUCUU (ssRNA) [Ic_S1_P5E.1_K5.1_C5.1_H5.1_A5.1_[T5A]_[T6A]_[A7C]_F5.1_[A10T]_T5.1]	37.5
UCUCUUUGUACCAUUUUCUCUU (ssRNA) [Ic_S1_P5E.1_K5.1_C5.1_H5.1_A5.1_[T5C]_[T6C]_F5.1_[A10T]_T5.1]	7.08
UCUCUUUGUAAUGGUAUCUCUU (ssRNA) [Ic_S1_P5E.1_K5.1_C5.1_H5.1_A5.1_[T5A]_[A7G]_F5.1_[T8G]_T5.1]	45.1
UCUCUUUGUAUACCCUUCUCUU (ssRNA) [Ic_S1_P5E.1_K5.1_C5.1_H5.1_A5.1_[T6A]_[A7C]_F5.1_[T8C]_[T9C]_[A10T]_T5.1]	103
UCUCUUUGUAUUUGCCUCUCUU (ssRNA) [Ic_S1_P5E.1_K5.1_C5.1_H5.1_A5.1_[A7T]_F5.1_[T8G]_[T9C]_[A10C]_T5.1]	568
